In the supplement of paper PMC9112550, “Optimization of the antimicrobial peptide Bac7 by deep mutational scanning” (BMC Biology, 2022):

Tested on: Escherichia coli TOP10
Experiment: shrunken log2 fold change of peptide-encoding DNA abundance (4.5 h post-induction vs induction); higher = less antimicrobial activity (less host growth inhibition)
Settings: time post-induction: 4.5 h; library: site-saturation at positions 5, 18, 19, 20
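Also: peptides expressed intracellularly from a pBAD plasmid library in pooled LB shake-flask culture, induced with 0.3% L-arabinose, DNA abundance read by NGS, three biological replicates, DESeq2 with apeglm shrinkage.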

Sequence: RRIRRRPPRLPRPRPRPFHTPRP
- shrunken log2 fold change: -0.0624

Sequence: RRIRCRPPRLPRPRPRPIYTPRP
- shrunken log2 fold change: -0.234

Sequence: RRIRNRPPRLPRPRPRPVNQPRP
- shrunken log2 fold change: 0.214

Sequence: RRIRLRPPRLPRPRPRPNFSPRP
- shrunken log2 fold change: -0.00932

Sequence: RRIRPRPPRLPRPRPRPDMSPRP
- shrunken log2 fold change: -0.303

Sequence: RRIRSRPPRLPRPRPRPFHWPRP
- shrunken log2 fold change: -0.108

Sequence: RRIRDRPPRLPRPRPRPTNKPRP
- shrunken log2 fold change: -0.0409

Sequence: RRIRPRPPRLPRPRPRPATFPRP
- shrunken log2 fold change: -0.305

Sequence: RRIRLRPPRLPRPRPRPRGLPRP
- shrunken log2 fold change: 0.146

Sequence: RRIRTRPPRLPRPRPRPVTMPRP
- shrunken log2 fold change: -0.289

Sequence: RRIRIRPPRLPRPRPRPLYEPRP
- shrunken log2 fold change: -0.649

Sequence: RRIRWRPPRLPRPRPRPDYPPRP
- shrunken log2 fold change: -0.169

Sequence: RRIRYRPPRLPRPRPRPEIVPRP
- shrunken log2 fold change: -0.00224

Sequence: RRIRQRPPRLPRPRPRPMILPRP
- shrunken log2 fold change: -0.109

Sequence: RRIRDRPPRLPRPRPRPGWGPRP
- shrunken log2 fold change: 0.687

Sequence: RRIRMRPPRLPRPRPRPINHPRP
- shrunken log2 fold change: -0.173

Sequence: RRIRWRPPRLPRPRPRPDHPPRP
- shrunken log2 fold change: -0.0785

Sequence: RRIRQRPPRLPRPRPRPRMRPRP
- shrunken log2 fold change: 0.583

Sequence: RRIRRRPPRLPRPRPRPIFQPRP
- shrunken log2 fold change: 0.303

Sequence: RRIRNRPPRLPRPRPRPCHKPRP
- shrunken log2 fold change: -0.00663

Sequence: RRIRERPPRLPRPRPRPVSVPRP
- shrunken log2 fold change: -0.022

Sequence: RRIRGRPPRLPRPRPRPAIRPRP
- shrunken log2 fold change: 0.768

Sequence: RRIRTRPPRLPRPRPRPWKEPRP
- shrunken log2 fold change: -0.0407

Sequence: RRIRLRPPRLPRPRPRPCGCPRP
- shrunken log2 fold change: 0.282

Sequence: RRIRPRPPRLPRPRPRPYSRPRP
- shrunken log2 fold change: -0.368

Sequence: RRIRCRPPRLPRPRPRPYEAPRP
- shrunken log2 fold change: -0.511

Sequence: RRIRHRPPRLPRPRPRPIAIPRP
- shrunken log2 fold change: 0.0123

Sequence: RRIRYRPPRLPRPRPRPKHIPRP
- shrunken log2 fold change: -0.66

Sequence: RRIRHRPPRLPRPRPRPTSLPRP
- shrunken log2 fold change: -0.135

Sequence: RRIRHRPPRLPRPRPRPWFTPRP
- shrunken log2 fold change: -0.0018

Sequence: RRIRWRPPRLPRPRPRPDNPPRP
- shrunken log2 fold change: 0.208

Sequence: RRIRVRPPRLPRPRPRPHPRPRP
- shrunken log2 fold change: 0.555

Sequence: RRIRYRPPRLPRPRPRPDDYPRP
- shrunken log2 fold change: 0.0219

Sequence: RRIRLRPPRLPRPRPRPMTMPRP
- shrunken log2 fold change: 0.024

Sequence: RRIRHRPPRLPRPRPRPRLHPRP
- shrunken log2 fold change: 0.0986

Sequence: RRIRSRPPRLPRPRPRPCWAPRP
- shrunken log2 fold change: 0.143

Sequence: RRIRLRPPRLPRPRPRPKCFPRP
- shrunken log2 fold change: -0.00607

Sequence: RRIRTRPPRLPRPRPRPDASPRP
- shrunken log2 fold change: 0.0856

Sequence: RRIRTRPPRLPRPRPRPFYGPRP
- shrunken log2 fold change: -0.473

Sequence: RRIRARPPRLPRPRPRPAHYPRP
- shrunken log2 fold change: 0.095

Sequence: RRIRQRPPRLPRPRPRPMICPRP
- shrunken log2 fold change: 0.013

Sequence: RRIRPRPPRLPRPRPRPFCQPRP
- shrunken log2 fold change: -0.257

Sequence: RRIRIRPPRLPRPRPRPGLKPRP
- shrunken log2 fold change: 0.0429

Sequence: RRIRSRPPRLPRPRPRPDNFPRP
- shrunken log2 fold change: -0.299

Sequence: RRIRPRPPRLPRPRPRPMAEPRP
- shrunken log2 fold change: 0.106

Sequence: RRIRQRPPRLPRPRPRPPIWPRP
- shrunken log2 fold change: 0.113
